Results from the DeepSol protein solubility set.

Assay: soluble on expression in E. coli; label from the status in PepcDB or PDB records

Sequence | soluble on expression in E. coli
MIEQIGADSKSAENKQERKLYIETYGCQMNVADSEVVASVMQMDGYNLTDNVDEADTILVNTCSVRDNAEQKVLNRLAYYHSLRKKRRASSRLVIGVLGCMAERVKEELIREHHVDVVAGPDSYLDLPNLVGAAEQGEKAINVELSTQETYKDVMPLKMGGVHINGFVSIMRGCNNFCSYCIVPYTRGRERSREIESILNEVRDLKAKNFREVTLLGQNVNSYRYEQNGRIIRFPDLLAAVAEAVPDMRIRFTSPHPKDMDDEAIAVMARYRNICNHIHLPAQSGSDKMLRVMKRGYTRRWYLDRVAAIRRAIPDCAISSDLFCGFHSETEEDFEATLSLMEEVRYDSAFMFKYSERPGTYAARHLADDVPEEVKLSRLDRMIALQNRLSEESNKRDIGKTFEVLIEGFSKRSREQLFGRTQQNKVVIFDKNGHRVGQYIYVRIKDASSATLFGEVVETPTSELEHHHHHH | soluble
MIVIEGSDKFKIAKEYIDVEYTLFSKVTFRYEKLKFKDNAELEKIKMFKYKNGYIPNKLNLSFGYGFSSYKKQIIRETVDTLRLTEIFSSENIEDIKFIKDGTKKLEISIEKVVKFKRRKKRNYVCCYCPDMYRDIKLDKESINKIYNRKIKIEREVNIFEDEDVIINKKVLKFPKSWTKNMQKYWLSENKYPIHSTVIDDDRYKCCNVQYTKNRVIILYYIYNH | not soluble
MTATPLYCAEPARLDTARRLCERFSLPLIKQRPADGYWLELGSERLELLTTGKHGAVYAEFVEGAARHRREQGGGRGQPVAKAVGLKGAKDLPHVADATAGLGRDSFVLATLGCRVTMVERSPVAAALLADALERAQRDETTRDIAARMTLVHANSRNWLAGLTEAQRPDVVFVDPMFPDTDKKSAAAKKDMQAFQQVIGDDMDSAELLAAAIAAARVRVVVKRPRLGAAIAGVKPSAVLDGKSTRFDLYVIKALASGLEHHHHHH | soluble
MGSDKIHHHHHHMKIQEVKRILTRWQPSSFSLYREVFTQYGGSINMHPDIVDYFMKRYNWHFKFFHYKEDDKIKGAYFICNDQNIGILTRRTFPLSSDEILIPMAPDLRCFLPDRTNRLSALHQPQIRNAIWKLARKKQNCLVKETFSSKFEKTRRNEYQRFLKKGGSVKSVADCSSDELTHIFIELFRSRFGNTSSCYPADNLANFFSQLHHLLFGHILYIEGIPCAFDIVLKSESQMNIYFDVSNGAIKNECRPLSPGSILMWLNISRARHYCQERQKKLLFSIGILKPEWEYKRMWSTPYFTGKSIC | not soluble
MANSITADEIREQFSQAMSAMYQQEVPQYGTLLELVADVNLAVLENNPQLHEKMVNADELARLNVERHGAIRVGTAQELATLRRMFAIMGMYPVSYYDLSQAGVPVHSTAFRPIDDASLARNPFRVFTSLLRLELIENEILRQKAAEILRQRDIFTPRCRQLLEEYEQQGGFNETQAQEFVQEALETFRWHQSATVDEETYRALHNEHRLIADVVCFPGCHINHLTPRTLDIDRVQSMMPECGIEPKILIEGPPRREVPILLRQTSFKALEETVLFAGQKQGTHTARFGEIEQRGVALTPKGRQLYDDLLRNAGTGQDNLTHQMHLQETFRTFPDSEFLMRQQGLAWFRYRLTPSGEAHRQAIHPGDDPQPLIERGWVVAQPITYEDFLPVSAAGIFQSNLGNETQTRSHGNASREAFEQALGCPVLDEFQLYQEAEERSKRRCGLL | not soluble
QITYWKERQRRKTIRAEEIRGLIYRIWKIYPSLLGQELLESTIFVFMVLAAVARLGAEDVAVYKLLDLVCGMLELPVYAYAAATQTYALQNHAAGKKAAVRSYEK | not soluble
MAHHHHHHMDVLGTCTALVATLQEPQEDIQSRDHYELVLLDGPSLPIVGVSSTGGLLAATSAASAAAAATAAVAAADDTMSSTEAAKESASDSDAAVTRVKTTIDLHQAFARFQRTDSAENYLLDVVYVGDCTMMLIRNGRVCYVTEEQAHQLDYPYQLGTGSNDTPKDGVRLLIPVEKGDIVVMGTDGIFDNLYPHRIVELIWPHLERVFSQHGYLQALGGAETAKAPANAVSYVKNRNLRTLLDDIMAALDMGANAVMADAMTVSRDVRCDSPYASKCIENGALFEGGKPDDMTLLISVIGESDDGEPSEQFSGSETAFPLPYRDWP | not soluble
MGSDKIHHHHHHVSEKMWGCCPNHWKSFGSSCYLISTKENFWSTSEQNCVQMGAHLVVINTEAEQNFITQQLNESLSYFLGLSDPQGNGKWQWIDDTPFSQNVRFWHPHEPNLPEERCVSIVYWNPSKWGWNDVFCDSKHNSICEMKKIYL | not soluble
MGSDKIHHHHHHLIIDANIYWLPNEIFVSEEMTNHFLRVVPREYGVYAYQREKNKNEREFVIEKPEGSENLNYFQGDYDLSVQLENMDQAGVDTGVMKLPGCQEWLDLDLCIQFNNQMAETVKKSKGRFRALAVVPPSGDADTLRELKRCIKELHMNGLQLSAHYGNKYLDDPMFRPLLKCASDLNIPVYVHHTPVPVEYNSLADYNNLRRSYGRCEDQTIAVTREIFSGMFKELPNLKMIHSMLGGGYFAYKNMFFPNDSGHGRFDANTSDVARSLKDNIYFEMSHAQPWGKAELKCAVEVLGADHIIYGSSYPVKKDWLIGGPQYVGDLPISQDEKDMLLFKNAERIYGIK | not soluble
MSLTILELTFATNQLTTTFFNHKLEPLHQKTFPFEALTIEETVPELCQLILAEAAPILGGIVADFPADFFSPEETLALVPQAVIQAFAEQLNTPLLTAAEQAAAPNLLEAFEEKRQYLAWHLDYYGYVPGKNEYAVESLLTVGNGFLGLRGTTPEMTISDDHYPATYIAGLYNTAASEVAGQVVENEDFVNAPDNQHIALKIGDATDWLTISPDTLQQLHRQLNLKTGLFVAEMILKDADNQQIKLTTKKIANMAQPNDYHLQYTFEPLNFSAPITLKTVTDGSVYNYNVARYRNLTAKHFQVTALSAQENKTVIEVCTNQSNLSVRETSLITGDFFEKEAITIQEEAEKIAQVVTVMAHQGTRYTLEKQVFVQASHAEQSWQVPFTPKDSFAAAAQESARAWQTLWQQANITVTGDLMSQKLLRIHSYHLLASASPFSNQAQALDVSITARGLHGEAYRGHIFWDEIFILPFYIQHYPDTAKQLLLYRYHRLEKAKENAAASQYRGAMYPWQSGRDGRETTQKLHLNPLNGHWGEDHSILQRHVSLAIAYNAWLYWHSTQDHEFMKQYGGEMLLEIAQFWNSAATLDDATGRFFIDKVMGPDEFHEGYPDQAESGLKNNAYTNLMVVWLFEELTNILALFSEEEQAQLFAKTQTTSADLARMQQIQNSLEIEVNSDGIIAQYEGYFGLKEIDWTAMKEKYGNIYRMDRILKAEGESPDDYKVAKQADTLMLFYNLDKTRVDQILEDLGYQLPADYLEKNLLYYLKRTSHGSTLSRIVHAQLAEMAQFHELSWQLYQEALYSDYRDIQGGTTAEGIHTGVMAATIHVTLATYAGVDTRQNELSICPNLPEHWQALAFQFIHQGVTYQFSLTQTSVTITADRDTQLLVQGALIPLTAERPKEVHYQEGHHHHHH | soluble
MRGVTPINPQKKIEADSNPVKESDYYEGERLTHLLDLIQRGIETSKLSNVNSLPEKIWLKKQIAIGINEVTRVLERMNPNNTSDQQQNPKQLQVVILVADCKPRMLTKHIPNLAASRNVPVLYVRDNKRASLRLGELVKLKTALAIGIKARGNDLNLLLKQILPRDS | soluble
MGSDKIHHHHHHMLVTELNIYPLKSARGIALKESAVSAEGLPGDRRAMLTDPSGHFITQRELPAIATVLARHEDGGMALSRERSGEIFARPSGQRMDVAVWKSIVSANIADDETNDTLSAWLGREVKLVFFDDAAKRIASLEWTGNETPVTFADGYQILVTTTASLAALNDNMRGNGEDAVGMERFRPNIVLETEEAWAEDRWAAIEIGGIRFDLVKPCARCIMTTQDQMTGSRDVPSPMKAMGRIRMSGDRRVPGPLFGWNVTPRGEGRLSVGDVARVVEERPEGWAIKRR | not soluble
MGSDKIHHHHHHMNTYFDNATSSYPKPDAMRQALAYFYDVPVGSYGRSRDRETLRVTSEVEELRDALADLIGVSESAHICFADNATTGINTILRGSLQAGCSVLVSPMEHNAVMRPLQCLADTIGLKIALMPSMPDGRVDTDRLVSAIPTDTALAVVNLESNVNGLVQPIEEIARLLTQERGIPILADATQYLGTSRLKADELGLAYVAFTGHKGLLGPSGTGGFYIRDPRSVHPLTTGGNGLHSADWTVGVEMPERFMAGTVNVLGLTALLASVRQLPPFRISRDAWKQCMQQMQRFPGLRVYGAADPIEQGYLCSLTHDRLTPARIGDALYEAFDIVTRTGIHCAPLAHRSIGTFATGTVRLSLSPYHEEADLEYLLNALSHVLRS | not soluble
MSLKLTSYTKTMQGRRKKQEDRYLVITDLTKYIDSNDYKTLYFYKKNPLYFYSIFDGHRGIKACEYCMSHIIKNIIYYFYNQGSAGAGTDEQIMEYIKLAFLKTDEQFLKVSKFPNHGCTIISLIIFRNKMFVANLGDCRAIGVVNISNTLKTEVLSNDHKPNDPKEKERIKKMGGDVICLQNVYRVKANARKNNKDKPSLLERLSMKEEVYLAVSRAIGDKDFKFNNVISATPDVICKEDNLYYSAHEVNYHYVVMACDGVWDTMSNKDIVKILQTYNNDPDKACSEIIKTAYAYGSQVHEGHHHHHH | not soluble
NLEGKGCSVLDQAGLAQKFGPVVSHIRIAARQEDLFAVRIAAGEAHLLLGCDLLVAAGPDAIAKLDSKISHAVINSQQTPTAEFTRNPDAVFPAEAMKQTIIDAVGADKTHFVEATSLATRLMGDSIASNLFMLGYAFQLGLIPLTSAAIEKAIELNGVAVNLNQQAFLWGRRTAHDPAAVEAFVNPQP | not soluble
MGSDKIHHHHHHGFESDNANKAGYTPELQEYDLQKYVLNLGVMQQGIYFNYDWGRGTDWTFQTIQNLGHDMFAGYFHDMNNSFNDKNSVYALNDGWTGSAWTYTYGYIMTAAQKSEKINQEQKGLLGVTKILKVELMHRIADTYGPIVYTKFGQEEGDNVDSQEAAYRQFFKDLDEGVKLINEYKKDNAALEPFAAADILMPAGKRTLSQWVKFANSLRLRLAIRVSMSAPDLARAEVAKAMDATAGGVLESADETVAVSTESGYKNPLGTVNEGWGEVFMGATMESVLVGYNDPRLIKYYSKAEGGDIKDEKGNLIIAERNKIAGTYKGVPQGTGVTVKDENRYRLHSKSTITKQTDAILMTAAEVWFLRAEAALRGFTSENVKDCYEKGITVSCQQWGVNVGDYLTSDATPSDYVDAFEAKYDVKALIKVTPKWDGGASPEEQLERILTQKWIACYPEGYEAWTEQRRTGYPQLFKVFVNNSGGAIDTNIRIRRLPYPSDIQKNNPTQYSALKKALGGEDNGGTRLWWDTGRNF | not soluble
DIQMTQSPSSLSASVGDRVTITCRASQDIPRSISGYVAWYQQKPGKAPKLLIYWGSYLYSGVPSRFSGSGSGTDFTLTISSLQPEDFATYYCQQHYTTPPTFGQGTKVEIKRTVAAPSVFIFPPSDEQLKSGTASVVCLLNNFYPREAKVQWKVDNALQSGNSQESVTEQDSKDSTYSLSSTLTLSKADYEKHKVYACEVTHQGLSSPVTKSFNRGEC | soluble
MYKIVTVKDVVRIPPRMFTMDPKEAAMLVLRDTYEGTYDRDEGVILSIVEVKEVGDGIIVPGDGATYHEVVFDVLVWEPKRDEVVEGTVVDVVPFGAFIRIGPMDGLVHISQLMDDYVVYDERNKQFVGKEKKYLLKIGDAVRARIITVSPKSRVIRENRIGLTMRQPGLGKFEWIEKEKRKEKEGKK | soluble
MGHHHHHHSHMNFIKDNSRALIQRMGMTVIKQITDDLFVWNVLNREEVNIICCEKVEQDAARGIIHMILKKGSESCNLFLKSLKEWNYPLFQDLNGQSLFHQ | not soluble
MKILHTADWHLGQTFYEYDRREEHLHFLEWLKQQIRQHEIDVLLIAGDVFDSPNPSAESQRMYYRFLREVTSENPSLQIIIIAGNHDSAARLEAPNPLLENMNVTVRGVVRRNAEGDIDLQHLIVPLYTEGEVTAYCLAVPYLRQGDYPSAENYSKGVQLLYEQLFNEVKEKGLPVIAMGHLQATGSEISEDDRSERTVIGGLECVSPDAFDEAIAYTALGHLHRSQRVSHRENVRYSGTPMPMSFAERNNASGVVMITISAEGTGIERLA | not soluble
